Reference: the DeepSol protein solubility set

Test: soluble on expression in E. coli; label from the status in PepcDB or PDB records

Row | Sequence | soluble on expression in E. coli
1 | SNAGAPLKAVSAFAPPMKTQDFNLYTNEVHAKFDDYDLGMEYARQHNKPVMLDFTGYGCVNCRKMELAVWTDPKVSSIINNDYVLITLYVDNKTPLTEPVKIMENGTERTLRTVGDKWSYLQRVKFGANAQPFYVLIDNEGNPLNKSYAYDEDISKYINFLQTGLENYRKEK | soluble
2 | MGSDKIHHHHHHMIDQLYRKAVLTVAERPQVEQLARQKMWNLAERFVAGESIESAIQAVQALERDGIAGNLDLLGEFIDSPAKCTEFADDVIKLIEAAHAAGIKPYVSIKLSSVGQGKDENGEDLGLTNARRIIAKAKEYGGFICLDMEDHTRVDVTLEQFRTLVGEFGAEHVGTVLQSYLYRSLGDRASLDDLRPNIRMVKGAYLEPATVAYPDKADVDQNYRRLVFQHLKAGNYTNVATHDERIIDDVKRFVLAHGIGKDAFEFQMLYGIRRDLQKQLAAEGYRVRVYLPYGRDWYAYFSRRIAETPRNAAFVVQGMLKG | not soluble
3 | MGSDKIHHHHHHKDTKWVDVPTGTPPEGSVTGKPGETEEPDDPDPTDKTFINCSYIRGDFFETNRISGASMGACNDLIYLTARPYADGDLTFDLPVNDATLTGAATYAASYNGRNGVLKLDGTGKMNAGDGLLHSPDGAFKKFTFGTYIYVSEWVDGACLFKKVDGGSVVIAFQLGATEGNLKLTVGSATATVTNSALKSGAWHYVAVTYDGGAAKLYIDTNNTATDFTGSLPASVPNTRADFVMGENLKGYLDETFVNSLLMGTLGRNPISFDNWNNTKTLAYWKYDDAAKPGKDSHTWAIRLEQIRTALNGQAGDRKIRLGIAGGEWLKMVGNATARTNFANNVKKVIEQYNLDGADLDFEWAYSGTDLSNYSKAIVQLREVLGKDVFLTVSLHPVSYKISAEAIAAVDFISLQCYGPSVELFSMERFKSDGKAAVDYGIPQDKLVMGVPFYGTTGTAGEQAAYFDLVGKGNLTNTSADTWSYEGKNYTLNSQNTIRQKTQYVCENGFGGIMSWDLATDVDVTHEMSLLKAVKEELDYYANPTVE | not soluble
4 | MGSDKIHHHHHHMTQRQERLFVLEASSGGRLFSVNPDGSDKKVIVTGCRIPDGVAIDVLAGHVYWTNMGLPPENDGSIERVDLDGGNRTTIVPSGVTHTPKQLYLEAVGRKLYWGDREGMRVMRCDLDGSHVETLVQTGQGEDDRRDETRWCVGVAVDPAGGHLYWTQKGPSDAGLGKILRAGISLPAGESAAERGDIEVLFEGLPEPIDLELDLAERMLYWTDRGDPPRGNSVNRSPMHPPDAQRTPEILLTHLMEAIGIALDPDGGRMYVTDLAGNVYAAGLDGSNRREILVAQGNLTGIAHAVLPTGTSF | not soluble
5 | MEMRGKITKINENGLGVLGNILVPFAYPGDEVEVTETRERFGKIIARDFKLMTPSPLRIPGKCSHFGKCGGCLWQGLRYREQLKLKEEIFKRITGIEAEIKGSPRIWYFRNISNFIITVNGIGFKEFGMPKTVVNIRECPIFSERTPKYLKALKDFLRESNLKPWNWREGDVHYLQVREGKFTGEVMVNIIAHVPLNYREALMEAFNFADSIYWSLKADKKDDPRGFPTLVLGNEVIREKVEGITYLIHPSVFFQTNSYALPLLLKSVEKFCEGSKVLDLYSGIGTLSLYLAKRGFEVTGVEVNGTSVEMAKRSAEINSINATFIQGKAEDAELEGYETLIVDPPRKGLKEFSRRIVKKGPNTLIYVSCNPLRFILDYRNYLSEAYKVDDALLIDMFPHTPHIEAVIKLVRR | soluble
6 | MHIKSIHLDGFKSYQKHTDILDFSPTFNAITGYNGSGKSNILDSICFIMGINKLDNIRAKSMHELISHGGTKAIVQVRFDNTDKRCSPFGMEHLDEIVVQRIITAQATGKGCATSYTLNGHAATNGKMQDFFRGVGLNVNNPHFLIMQGRITTVLNMKPEEILGMVEEAAGTKMYDQKKKDAEKTMFLKDAKLKEVDRIFQSSIDPRMVKFREDRKNMVEVTRLKKLKENFSRKYEAFQYFQTCEAVKKSAKEIEDAKKGIEDLGEKFNQLDLDLKNKEDEKKKMEESRDDQHEEAALSAAHLSKQSIMLQKETVKNQLVETINKLKKEGEQINKSLSKDREVLDAKRKEHEDSKAANSKDIQSQSDDEALVTKYRNDLESLTRGTIANDKGEHVSIESEIQSCKSTASQMSSGITAAKKRGERLHNQIKHLEGEKATLSARSKSDIGSADNYQKEVDEINKQLQLLGFNIDADTEKREHAAKLHESITKLKDMDTRLLNSYKDGRYALNYQRPPLHIDKFDEKRDVFGYVAHLIKMKPGCEQFAVAADIALGGVLGNVVVSTQDIARILIDGKAFTSRKTMIPVSENARNASSYNTLPDVKLRRAKEIAEKYNDTVTKMIDLIEYPDFISNTILNAVGQILVVDSLDVAREIAYDEVAKTRMITRRGDDVRTNGIMTGGYNDPGNKPALIALEPMYARRPQIEAQQRELDALNRELQLTEASSQKCRDLNNQLATAMRKLAQVKTNINNSEFGIVVRDLKVHSEEYEKNQAEIEATVKTLKDVEDKIKTLESMKNKDKNSQEKRKKELTALLQKAEQTVAQNKNRGEKARREVMLLQATVEEMEKTIKKDEGIWEQKKKECDELEEKLPNAIAALKDAELEQKAAQAKLNDLKNNQRQISTRLGKIAKECDALIREKAKTKSKREEKEKELTSLQQSEASNRKEARSKLKKFEWLSDEEAHFNKKGGLYDFEGYTVSKGKDEIKELTDKIETLERSCCIQNVSNLDTCEAKVLDIKNKRERITEDFNMLKKTIATLDKKKVDELIRAHESVNKDFGQIFNCLLPDAHASLVPPEGKTVCEGLEVKVSFGGVVKDSLHELSGGQRSLVALSLILAMLKFKPAPLYILDEVDAALDLSHTANIGMMIKTHFHHNQFIIVSLKQGMFSNADVLFQTRFADGHSTCTRLNGGDIAVLCQDKVLQAQALELTDAGKAKKDAAAKKGAQKNDKEPPKKKPIVVDDDDFE | not soluble
7 | MGEVQREKVAVIIGPTAVGKTKLSIDLAKALNGEIISGDSMQIYRTMDIGTAKVTKAEMDGIPHYMIDIKNPEDSFSVAEFQERVRKHIREITERGKLPIIVGGTGLYIQSVLFDYQFTDDAGDVIYREQREKLALERGVEYVHEKLQEVDPESAERIHANNVRRVIRALEIFHTTGEKMSEQIEKQEKELLYDVSLIGLTMDREMLYDRINLRVDLMMEQGLLEEVEGLYNRGIRDCQSIQAIGYKEIYDYFENRASLEDAVSQLKTNSRRYAKRQLTWFRNKMDVTWFDVTDGEKTSEILRYIEGKLQVKSNNSK | not soluble
8 | DKFFIWGKRIDYNALKTTLIKKAQDENLLHFTPKISLVEDGFIRSISLGSDLTRPFSLIVDDKGLYIDPNKASKLEELLQNEIFDENMLNRAKNIIKILLENRFSKYNGLKHEDLKINAKIGQKIILIPAQVEDDASMILGGFGLSTLDLLKEVRAKNQDAYIIFKPHPDVLSGNRVGLKDETLILEFCDEIVKDCSIDSAIKIADEIHTITSTSGFDALLRAKKVFTYGMPFYAGWGLTKDKYRCERRIRKLSLEELVAGALIIYPRY | not soluble
9 | GPGSMTALSLALGIHDQATTKFGSKDFCDAVEAEAAAANAHQYRMFLLAMETLLQRQWEHYCFHGGNHITKSQQLEEKRLCRYFSVHCMNMEGRGCRDERKHRKLFGSGAAGPLIDFIYRLICHSHCSIECYPITLALTGRFFVEMRKESVATEYEAAVDHLPCVFAVLLLITAKYRDDNFRSNRYFSQLAELSLMEWNALERLVIRVLRFNVNVPFYEYVAYEKLLLKEMMRQEEKKCGFPSIDQSPRSEKMESLMHLDSKNDMSMLFFDHVEMAMKDNASFHSCGVTASSPSLRSQCPLMSVEDSPVSWRQGV | not soluble
10 | MNLRTQKFHMYFKQWIELYKEGAVRPVTYQKYQMSHKHLVTLAPDLHMDELKRRTYQELINEFAANHEKQTTLDFHHHLKAAILDALDEGILEQDPTRKVVIKGTLEHHHHHH | soluble
11 | MGSDKIHHHHHHMYSTTQHQSPETVVTVSSLGKAYKIYNSKRDRAKQLIFQNRRKYFQEHWALRNISFDLRRGESIGIVGKNGSGKSTLLQLICGTLKPSQGEVIVNGKIAALLELGSGFNPEFSGRENVYLNASILGLNKQEIQERLDDILAFADIGNYVDQPVRTYSSGMVVRLAFSVIAHVDADILIVDEALSVGDAYFTQKCMRFIQRFQEKGSLLFVSHDANAILSLCNRALLINQGELKRVGKPKEVIEDYTRDLQKRNLADQNNKINRPERMKEQENTAHMKRQSGVQYTQKNIENEIMKWSDYRCKLINSSNLANTIVITRFDETLTTRETYGGEKAEITNVELENIETNKTIQNIKGGEIVRLRLKFEARTAIGRPIIGFILKNSKGLTILGDNTNNSISENNDFNAFEGDKVTTDFVFTVPMLQQGEYMISVSVADGCITEHEILHWMNDALLLRSQCTSIAAGLAGVPMHSISIEIEK | not soluble
12 | APRTLYDKIWDDHVVHQSEDGTCLLYIDRHLVHEVTSPQAFEGLRMTGRKVRAPEKTIAVPDHNVPTTEGRDTKIDNEESRIQVEALDKNARDFGINYYPVSDIRQGIVHIVGPEQGWTLPGMTVVCGDSHTATHGAFGALAHGIGTSEVEHVLATQTLIQKKSKN | not soluble
13 | SNAMLIIETLPLLRQHIRRLRQEGKRVALVPTMGNLHDGHMKLVDEAKARADVVIVSIFVNPMQFDRPDDLVRYPRTLQEDCEKLNKRKVDYVFAPAVEEIYPHGLEGQTYVDVPGLSTMLEGASRPGHFRGVSTIVSKLFNLIQPDIACFGEKDFQQLALIRKMVADMSYDIEIVGVPIIRAKDGLALSSRNAYLTAEQRKIAPGLYNVMNSIAEKLIAGNRELQEIIAIAEQELNEKGFRADDIQIRDADTLLELTETSKRAVILAAAWLGQARLIDNQSVTLAQ | soluble
14 | RKRYYNTIEDMKGKIRVYCRIRPLNEKESSEREKQMLTTVDEFTVEHPWKDDKRKQHIYDRVFDMRASQDDIFEDTKYLVQSAVDGYNVCIFAYGQTGSGKTFTIYGHESNPGLTPRATKELFNILKRDSKRFSFSLKAYMVELYQDTLVDLLLPKSARRLKLEIKKDSKGMVFVENVTTIPISTLEELRMILERGSERRHVSGTNMNEESSRSHLILSVVIESIDLQTQSAARGKLSFVDLAGSERVKKSGSAGNQLKEAQSINKSLSALGDVIGALSSGNQHIPYRNHKLTMLMSDSLGGNAKTLMFVNVSPAESNLDETYNSLLYASRVRTIVNDPSKHISSKEMVRLKKLVAYWKEQAGKKGEEEDLVDIEEDRTRKDEADS | soluble
15 | MADIDNKEQSELDQDLEDVEEVEEEETGEETKIKARQLTVQMMQNPQILAALQERLDGLVDTPTGYIESLPKVVKRRVNALKNLQVKCAQIEAKFYEEVHDLERKYAVLYQPLFDKRFEIINAIYEPTEEECEWKPDEEDEVSEELKEKAKIEDEKKDEEKEDPKGIPEFWLTVFKNVDLLSDMVQEHDEPILKHLKDIKVKFSDAGQPMSFVLEFHFEPNDYFTNEVLTKTYRMRSEPDDSDPFSFDGPEIMGCTGCQIDWKKGKNVTLKTIKKKQKHKGRGTVRTVTKTVSNDSFFNFFAPPEVPENGDLDDDAEAILAADFEIGHFLRERIIPRSVLYFTGEAIEDDDDDYDEEGEEADEGYQLFEEVKSCSKLFQRWLQ | soluble
16 | MSDLKNLILNSSILLDTSSTVQNDLNPEQLINVHEDSDGGRDLLTPESFILLMAEILSTNNADTICEYEHQNSADNKVLQNLQFKEVEEDEQIEGLNEQKKSLDNPLWHDVDLPVINEISGNQCEGQFESTLEKNVALTWINSENFQPPIVKPENQTDETYKIWDSEITSIESGKLKLDFPKADYDGNNINPYQKEAINQPGNDSSKNHQLIKGNDSFPILEDIKTNAEPGTKAIKSEVEATKVGTEIPGSSFQMNQKAGSDIQPPVVSNSHIPKNFSIPIHVNHSQWSEQLSEHIVWLGHQDVKSALIKIHPEELGPLEINVKVVKDNASVNISTHSVYVKEIVDQAIPRLREMMAQQGINLSEVHIGTDTSSRQGSQKNHHAEIDLIQSAEDKNKITSLTRHLPKGLVDYFA | not soluble
